Test results from the supplement of paper PMC10126150.
± gives the standard deviation of the averaged measurements.

Test system: ATP
Assay: switch fluorescence ratio, 500 uM ATP over buffer (Cy3 cluster intensity, sum of 5 cycles each) (fold (ratio)); higher = stronger signal-on switching upon ATP binding; sequences stand for … in TCGTCGGCAGCGTCAGATGTGTATAAGAGACAGTTTTTTTTTTTTTTTTTTTTTTTTT…TC
Details: aptamer strand: ATP DNA aptamer (quencher-CACCTGGGGGAGTATTGCGGAGGAAGG + anchor), 100 nM annealed; ATP concentration: 500 uM
Summary of the method: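 Exposure to 500 uM ATP lasted 15 min at 22 °C before imaging, and a selection-buffer image was taken beforehand, for Cy3-labelled switching-strand clusters on a modified Illumina MiSeq flow-cell annealed to 100 nM quencher-labelled ATP aptamer. Five buffer/ATP cycles were run with NaOH stripping and re-annealing between them. The fluorescence ratio per cluster is summed target-cycle over summed buffer-cycle Cy3 intensity, averaged per switch-domain sequence. Clusters outside 100-1000 RFU were excluded.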

Row | Sequence | switch fluorescence ratio
1 | TCTGGGGAGT | 1.01 ± 0.043
2 | TGTTTAGGGT | 0.997 ± 0.029
3 | CCGATACGGG | 1.072 ± 0.0082
4 | ATATAGGGAT | 1.021 ± 0.007
5 | TAGAAGGGAA | 1.03 ± 0.063
6 | AGAGGAAAAC | 1.08 ± 0.023
7 | TCCGGCTACC | 1.38 ± 0.039
8 | CCATTGAATG | 1.02 ± 0.015
9 | TGAGACGAAA | 1.07 ± 0.052
10 | CGATGGGCAG | 1.04 ± 0.061
11 | CAATTTCTGG | 0.973 ± 0.015
12 | GACGAACATT | 1.18 ± 0.21
13 | TTGGAGTTCG | 0.982 ± 0.013
14 | CTCGAGGGGG | 1.18 ± 0.34
15 | AGGGGGCAAC | 1.04 ± 0.03
16 | AATAGCGGAA | 1 ± 0.015
17 | TTTGTGTCGT | 0.982 ± 0.053
18 | AGTATATAC | 1.02 ± 0.029
19 | CATAGTTTGC | 0.9979 ± 0.0053
20 | CAATCCTTTT | 1.01 ± 0.018
21 | GGGTTTACAA | 0.989 ± 0.029
22 | GCCGGTCGTC | 1.0461 ± 0.00046
23 | TTAATCTGCG | 1.01 ± 0.032
24 | AGAGACTATT | 1.01 ± 0.0095
25 | GTTTAATTGA | 0.9676 ± 0.0018

Row | Sequence | switch fluorescence ratio
26 | TGCGGTTTGA | 1.01 ± 0.012
27 | TTCCTCCCCC | 1.94 ± 0.68
28 | CGGGGCAGAG | 0.991 ± 0.043
29 | GTGTGACAGA | 1.01 ± 0.014
30 | GACTTACCAC | 1.17 ± 0.052
31 | AGTTGTGTGC | 0.952 ± 0.044
32 | CATGTGGGGA | 1.021 ± 0.004
33 | AATGCAACTT | 1.01 ± 0.032
34 | CGCGATTTAA | 1.056 ± 0.0088
35 | AAGCTACGTG | 1.05 ± 0.013
36 | CATTCGCTGA | 1.92 ± 0.19
37 | TTAAGGTAGC | 1.03 ± 0.013
38 | TTTTGTATAT | 1.01 ± 0.025
39 | TACTATACGT | 1.276 ± 0.007
40 | AGAAAAGGGT | 0.997 ± 0.03
41 | ACTTGTTGCG | 0.989 ± 0.056
42 | TTATAAATCT | 1.008 ± 0.0092
43 | AATATTATGA | 1.01 ± 0.012
44 | GTGGGTTCGC | 1 ± 0.043
45 | TGAATTTGTA | 0.993 ± 0.03
46 | TTAGGCGCCC | 0.981 ± 0.029
47 | ATAGATAACG | 1 ± 0.035
48 | GTTTTATTCT | 1 ± 0.023
49 | CTATTTCATA | 0.992 ± 0.018
50 | AAGAGAATGG | 0.984 ± 0.052

Row | Sequence | switch fluorescence ratio
51 | GCGAGACCAG | 1.64 ± 0.051
52 | ATATTGTGGG | 0.987 ± 0.023
53 | AAATGGATTT | 1.01 ± 0.085
54 | GGAGTAAATG | 1.01 ± 0.015
55 | AGTTACGGGT | 1.033 ± 0.0032
56 | GCATGGAGGG | 1.01 ± 0.025
57 | GGGTAGGGCG | 1.03 ± 0.14
58 | TAGAACAACT | 1.21 ± 0.34
59 | TGGGATAAAA | 1.01 ± 0.044
60 | TTGTTTTGTC | 0.975 ± 0.065
61 | TATTCTGGGA | 0.9918 ± 0.0078
62 | TGGGGGGGGA | 1.02 ± 0.036
63 | TGGGGAATAT | 1.18 ± 0.38
64 | CTCCTAAAGA | 1.05 ± 0.013
65 | GAGTCTGAAA | 1.141 ± 0.006
66 | AGCGGGGGGA | 1.01 ± 0.025
67 | GTCCTCGCAT | 4.8 ± 0.54
68 | AAGGAGGTCC | 0.97 ± 0.066
69 | CATTGCAGTT | 1.01 ± 0.026
70 | GATAGCGCAG | 1.01 ± 0.063
71 | GGGATAAGCT | 1.02 ± 0.022
72 | AAATGCGGGG | 0.978 ± 0.036
73 | ATCTATCGGA | 1.0073 ± 0.00071
74 | GGAAGGGCTT | 1 ± 0.034
75 | TTGTGCAAGT | 1.01 ± 0.013

Row | Sequence | switch fluorescence ratio
76 | CGGATCTTTG | 0.977 ± 0.0033
77 | AGGGTTTCCG | 1.03 ± 0.038
78 | ATTGGTACTT | 0.986 ± 0.058
79 | TGGGAACGCG | 1.003 ± 0.0076
80 | TATAGGACTA | 1.01 ± 0.014
81 | CGAGGAGGGG | 0.995 ± 0.02
82 | AAATCGTAGG | 0.963 ± 0.054
83 | TTATTTTTTA | 0.993 ± 0.028
84 | TAGGGAAGGT | 1.01 ± 0.034
85 | TCCCTAAAAG | 0.9896 ± 0.0049
86 | GAAGGGGACT | 1.04 ± 0.076
87 | TCCAACATTT | 1 ± 0.046
88 | GTTGTTGAGG | 0.999 ± 0.012
89 | CGTGTGTGGC | 1.02 ± 0.0032
90 | GTTCTCATTT | 0.995 ± 0.025
91 | GCGATATAGC | 1.03 ± 0.027
92 | CGCCGAATCT | 0.961 ± 0.042
93 | TGGGGATTTC | 1.1 ± 0.16
94 | GGGATTAGGG | 1.02 ± 0.043
95 | GTAAGGGGTG | 1.01 ± 0.014
96 | TCTGTTGTTC | 0.993 ± 0.018
97 | TCAGGTTTCC | 1.0249 ± 0.00069
98 | AAGAGTTGAC | 0.947 ± 0.059
99 | GAAAGGTATT | 0.975 ± 0.021
100 | GAAATGAGGG | 0.977 ± 0.047

Row | Sequence | switch fluorescence ratio
101 | TTCGGTATGC | 0.98 ± 0.047
102 | ATAGTAACCG | 0.997 ± 0.083
103 | GAGGTTTGTT | 0.979 ± 0.023
104 | AAGTTGAAAA | 1.004 ± 0.0028
105 | ATTTGCGGAG | 1.002 ± 0.0057
106 | TGTGATAATG | 0.9831 ± 0.0017
107 | ATTTACCCTG | 1.08 ± 0.022
108 | TCCGTCAATG | 1.63 ± 0.07
109 | ATACGGGGTG | 1.1 ± 0.035
110 | CATGTTTCTA | 0.995 ± 0.02
111 | GGTTGGAAAA | 1.0226 ± 0.00079
112 | TCGGTAGTTA | 1.01 ± 0.047
113 | TTTTTGTAGT | 1.01 ± 0.032
114 | CGATAGGCGT | 0.9927 ± 0.0032
115 | GCGTATACGG | 1.01 ± 0.028
116 | GTTAGCGAAG | 1 ± 0.019
117 | TTTTGGTCGA | 1.03 ± 0.022
118 | ATTGGGGCCG | 1.01 ± 0.016
119 | TATTGTGGGG | 1 ± 0.044
120 | CAGTGGAGCC | 1.01 ± 0.034
121 | GTTTACAAGT | 0.992 ± 0.027
122 | TGTTCCGTCT | 0.9732 ± 0.0095
123 | CTATAGGTCA | 0.981 ± 0.036
124 | ACTGTTATGG | 1.066 ± 0.0077
125 | TCTTGGTCTC | 0.995 ± 0.027

Row | Sequence | switch fluorescence ratio
126 | TTAAATTATC | 1.041 ± 0.0058
127 | GCAGTCTGGG | 0.991 ± 0.01
128 | ATAGGTTGGG | 0.996 ± 0.03
129 | TGCTTTAAGG | 1.02 ± 0.04
130 | ATTTTTATAA | 0.987 ± 0.025
131 | AATATAGAGA | 1.01 ± 0.011
132 | TGCTTACAAA | 1.01 ± 0.027
133 | ATTGTTTGGC | 1 ± 0.027
134 | AATCCGTGTG | 1.01 ± 0.019
135 | AGTCATGTGC | 0.979 ± 0.038
136 | TAATTTGGGT | 1 ± 0.015
137 | CGTGGGGTTG | 1.01 ± 0.054
138 | TGAGTCTGCG | 1.02 ± 0.12
139 | CCGGGGTTGA | 0.993 ± 0.074
140 | AAAGGGGGCT | 0.9912 ± 0.0026
141 | TTAGGGGGGA | 0.987 ± 0.032
142 | GATAGGAGCC | 0.9977 ± 0.002
143 | ATTTAGTGTT | 1 ± 0.024
144 | CGCGGGAGTA | 1.02 ± 0.018
145 | GGTGTTTTAG | 0.989 ± 0.021
146 | AGTCGGTACG | 0.994 ± 0.096
147 | ACCAGGCCGC | 1.08 ± 0.03
148 | AACGGCCCTG | 1.03 ± 0.026
149 | GACGTTTACA | 1.17 ± 0.016
150 | GATCATCCTT | 1.03 ± 0.0052

Row | Sequence | switch fluorescence ratio
151 | TTATCAATAA | 1.42 ± 0.57
152 | ATGATTTTGG | 0.992 ± 0.023
153 | TAAAAGCCTG | 1.02 ± 0.052
154 | CGTAGCTAGA | 1.89 ± 0.047
155 | TGTAGGGGGT | 1.01 ± 0.041
156 | TATGACAGGA | 0.995 ± 0.011
157 | TATGTGACGA | 1 ± 0.026
158 | GTTTTTTCGA | 1.024 ± 0.0051
159 | TGTTTACGGT | 0.983 ± 0.032
160 | TTTTTGAAAA | 1.018 ± 0.0055
161 | ATAATCTCTA | 0.9907 ± 0.0094
162 | CGCGTTCCGT | 1.03 ± 0.019
163 | TTAATTTGTG | 0.986 ± 0.017
164 | AATCGGTTGG | 0.966 ± 0.019
165 | CGCCGGGAGA | 1.05 ± 0.036
166 | TCGTATCAAG | 0.969 ± 0.026
167 | TGGAGCCTAT | 0.991 ± 0.031
168 | ATGCCGGGGC | 1.02 ± 0.037
169 | TTTTATTAGT | 0.989 ± 0.044
170 | TTGATTAATA | 0.962 ± 0.022
171 | CGGGGGCTAG | 0.996 ± 0.012
172 | AGGATGGTAC | 1.03 ± 0.015
173 | GTAGGGAGCA | 1.02 ± 0.022
174 | TGCATTATTA | 0.995 ± 0.049
175 | GGGAAGAAGT | 1.011 ± 0.0084

Row | Sequence | switch fluorescence ratio
176 | CCGGACTCTT | 1.11 ± 0.015
177 | GCAACTTCGG | 0.992 ± 0.016
178 | CTCATGGTTG | 0.9638 ± 0.007
179 | TTGGATTTAA | 1.02 ± 0.012
180 | AAAAGCCCTT | 1.096 ± 0.0043
181 | CGAGAGGGGT | 1.02 ± 0.044
182 | GTCACCAGGG | 1.58 ± 0.082
183 | TGGGGGAAAG | 0.993 ± 0.026
184 | TGGTGGGTGG | 1.03 ± 0.058
185 | TAGGTTATGC | 0.974 ± 0.036
186 | ATGGATGGAG | 0.99 ± 0.013
187 | ACTTAGCAA | 1.92 ± 0.092
188 | CGGTAACCTT | 1.31 ± 0.44
189 | TGCTTAGGAA | 1.005 ± 0.0072
190 | GGAATTGAGT | 1.02 ± 0.021
191 | GGGAAGATTT | 0.992 ± 0.036
192 | TCGTTCGTCT | 0.973 ± 0.039
193 | AGGGCTTTCC | 1.075 ± 0.007
194 | GGGGTGGATG | 0.997 ± 0.018
195 | CCTAGCCTGC | 1.16 ± 0.054
196 | CGTACCGGGT | 1.01 ± 0.022
197 | CCAAATGTCG | 0.982 ± 0.025
198 | TGATAAACGG | 1 ± 0.019
199 | GATTGCATGG | 1.02 ± 0.013
200 | TAGAATGTTT | 1.02 ± 0.012
